Measurements reported in publication PMC10483038.

Target: MBP-Vpu full length (HIV-1 Vpu fused to maltose binding protein) (HIV-1) (UniProt P05919)
Test: cryo-EM structure; single-particle cryoEM of MBP-FL Vpu at 10 µM in 25 mM Tris pH 7.4, 150 mM NaCl, 100 µM TCEP; two maps at ~25 Å; protomers counted by docking MBP into the densities

Question: For “MBP-Vpu full length (HIV-1 Vpu fused to maltose binding protein) (from UniProt P05919 1-82) (natural protein)”, which stoichiometry N is on record?
Answer: 6 to 7
